Assay results reported in IntAct's records for PubMed 25218436.

Assays:
cblb_human CBLB [1] = biological target: cblb_human CBLB (UniProt Q13191)
cblb_human CBLB [2] = biological target: cblb_human CBLB (UniProt Q13191); remark: listed apart in the source
cblb_human CBLB [3] = biological target: cblb_human CBLB (UniProt Q13191); remark: listed apart in the source
cblb_human CBLB [4] = biological target: cblb_human CBLB (UniProt Q13191); remark: listed apart in the source

Chain of cblb_human CBLB (Q13191 whole entry): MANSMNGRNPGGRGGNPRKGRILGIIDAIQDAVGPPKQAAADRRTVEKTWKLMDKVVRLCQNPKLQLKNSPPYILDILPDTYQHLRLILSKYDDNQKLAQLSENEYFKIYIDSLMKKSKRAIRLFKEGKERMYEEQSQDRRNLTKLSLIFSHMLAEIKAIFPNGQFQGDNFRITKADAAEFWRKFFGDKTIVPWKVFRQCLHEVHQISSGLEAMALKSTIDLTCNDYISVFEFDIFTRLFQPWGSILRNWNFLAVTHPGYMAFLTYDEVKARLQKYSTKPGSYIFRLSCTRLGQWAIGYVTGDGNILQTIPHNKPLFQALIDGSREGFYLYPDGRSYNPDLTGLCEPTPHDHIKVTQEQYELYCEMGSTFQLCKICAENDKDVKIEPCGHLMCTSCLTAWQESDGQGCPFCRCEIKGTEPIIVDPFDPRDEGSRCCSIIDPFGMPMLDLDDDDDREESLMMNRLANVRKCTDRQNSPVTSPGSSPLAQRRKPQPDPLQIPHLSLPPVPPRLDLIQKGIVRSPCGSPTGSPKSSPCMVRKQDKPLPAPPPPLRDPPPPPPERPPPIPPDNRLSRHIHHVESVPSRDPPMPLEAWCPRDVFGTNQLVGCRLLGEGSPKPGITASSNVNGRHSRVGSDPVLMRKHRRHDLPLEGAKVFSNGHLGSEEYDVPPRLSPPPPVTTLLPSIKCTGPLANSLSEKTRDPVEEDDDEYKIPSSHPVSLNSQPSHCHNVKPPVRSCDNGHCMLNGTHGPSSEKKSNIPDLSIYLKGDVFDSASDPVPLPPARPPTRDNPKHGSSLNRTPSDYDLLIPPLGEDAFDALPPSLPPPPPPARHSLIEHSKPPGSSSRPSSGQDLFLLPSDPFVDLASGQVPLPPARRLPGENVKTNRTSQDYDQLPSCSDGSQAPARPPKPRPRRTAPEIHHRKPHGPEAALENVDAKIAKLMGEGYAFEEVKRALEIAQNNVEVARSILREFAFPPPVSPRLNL

SH2/SH3 adapter protein NCK1 (Homo sapiens) (from UniProt P16333) W38K;W143K;W229K
effect of a mutation on the interaction (cblb_human CBLB [1]): disrupting interaction

SH2/SH3 adapter protein NCK1 (Homo sapiens) (from UniProt P16333) W143K
effect of a mutation on the interaction (cblb_human CBLB [2]): disrupting interaction

SH2/SH3 adapter protein NCK1 (Homo sapiens) (from UniProt P16333) W38K
effect of a mutation on the interaction (cblb_human CBLB [3]): disrupting interaction

SH2/SH3 adapter protein NCK1 (Homo sapiens) (from UniProt P16333) W229K
effect of a mutation on the interaction (cblb_human CBLB [4]): disrupting interaction
